Results taken from patent publication US20250076311A1 (Chugai, published 2025).

What was measured:
[1] = target: T1, cynomolgus monkey FcγRIIa2 extracellular domain with C-terminal His-tag (cynomolgus monkey); test: SPR (Biacore), antibody captured, FcgR analyte
T1 construct: also called cyno FcgRIIa2; cynoFcγRIIa2
T1 chain: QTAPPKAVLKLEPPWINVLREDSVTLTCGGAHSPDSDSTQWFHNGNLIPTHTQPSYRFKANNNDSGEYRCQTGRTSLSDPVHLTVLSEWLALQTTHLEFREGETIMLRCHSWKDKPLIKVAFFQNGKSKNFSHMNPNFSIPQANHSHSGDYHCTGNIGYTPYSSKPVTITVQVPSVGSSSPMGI

[2] = target: T1, cynomolgus monkey FcγRIIa2 …; test: SPR (Biacore), KD of SG1 / KD of variant
[3] = target: T2, human FcγRIIb extracellular domain with C-terminal His-tag (human, UniProt P31994 43-217); test: SPR (Biacore), antibody captured, FcgR analyte
T2 construct: also called human FcgRIIb
T2 sequence: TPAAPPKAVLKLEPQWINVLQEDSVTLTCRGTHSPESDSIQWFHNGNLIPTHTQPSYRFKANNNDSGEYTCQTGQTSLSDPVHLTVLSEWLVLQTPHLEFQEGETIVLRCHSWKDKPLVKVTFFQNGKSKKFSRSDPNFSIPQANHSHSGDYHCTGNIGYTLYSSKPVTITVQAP

[4] = target: T3, human FcγRIIIaV extracellular domain with C-terminal His-tag (human, UniProt P08637 17-208); test: SPR (Biacore), antibody captured, FcgR analyte
T3 construct: also called human FcgRIIIaV

[5] = target: T4, human FcγRIIaR extracellular domain with C-terminal His-tag (human, UniProt P12318 34-217); test: SPR (Biacore), KD of SG1 / KD of variant
T4 construct: also called human FcgRIIaR; FcγRIIa (type R)
T4 chain: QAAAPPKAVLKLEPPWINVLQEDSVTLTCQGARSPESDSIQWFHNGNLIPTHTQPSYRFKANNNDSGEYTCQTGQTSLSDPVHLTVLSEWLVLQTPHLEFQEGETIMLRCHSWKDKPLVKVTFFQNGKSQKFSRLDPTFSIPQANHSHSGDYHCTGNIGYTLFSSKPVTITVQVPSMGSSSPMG

[6] = target: T5, cynomolgus monkey FcγRIIb extracellular domain with C-terminal His-tag (cynomolgus monkey); test: SPR (Biacore), KD of SG1 / KD of variant
T5 construct: also called cyno FcgRIIb; cynoFcγRIIb
T5 chain: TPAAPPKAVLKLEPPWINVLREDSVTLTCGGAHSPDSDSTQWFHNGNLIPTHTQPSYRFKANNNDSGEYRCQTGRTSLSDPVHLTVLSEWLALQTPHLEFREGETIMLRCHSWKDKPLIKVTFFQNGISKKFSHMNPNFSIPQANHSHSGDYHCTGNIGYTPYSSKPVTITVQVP

[7] = target: T6, human FcγRIIaH extracellular domain with C-terminal His-tag (human, UniProt P12318 34-217); test: SPR (Biacore), KD of SG1 / KD of variant
T6 construct: also called human FcgRIIaH; FcγRIIa (type H)
T6 sequence: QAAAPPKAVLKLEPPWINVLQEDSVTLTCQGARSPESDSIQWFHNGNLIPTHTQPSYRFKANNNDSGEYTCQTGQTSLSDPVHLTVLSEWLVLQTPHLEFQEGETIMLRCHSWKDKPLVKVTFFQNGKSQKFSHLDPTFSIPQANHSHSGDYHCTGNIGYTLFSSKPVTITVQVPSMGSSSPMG

[8] = target: T3, human FcγRIIIaV extracellular domain …; test: SPR (Biacore), KD of SG1 / KD of variant
[9] = target: T7, cynomolgus monkey FcγRIIa1 extracellular domain with C-terminal His-tag (cynomolgus monkey); test: SPR (Biacore), antibody captured, FcgR analyte
T7 construct: also called cyno FcgRIIa1; cynoFcγRIIa1
T7 chain: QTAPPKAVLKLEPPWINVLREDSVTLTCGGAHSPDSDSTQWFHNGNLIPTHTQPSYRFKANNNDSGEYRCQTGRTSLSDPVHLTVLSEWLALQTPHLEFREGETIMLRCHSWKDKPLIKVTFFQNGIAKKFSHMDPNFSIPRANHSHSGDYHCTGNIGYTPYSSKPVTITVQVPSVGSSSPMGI

[10] = target: T6, human FcγRIIaH extracellular domain …; test: SPR (Biacore), antibody captured, FcgR analyte
[11] = target: T8, cynomolgus monkey FcγRIIa3 extracellular domain with C-terminal His-tag (cynomolgus monkey); test: SPR (Biacore), antibody captured, FcgR analyte
T8 construct: also called cyno FcgRIIa3; cynoFcγRIIa3
T8 chain: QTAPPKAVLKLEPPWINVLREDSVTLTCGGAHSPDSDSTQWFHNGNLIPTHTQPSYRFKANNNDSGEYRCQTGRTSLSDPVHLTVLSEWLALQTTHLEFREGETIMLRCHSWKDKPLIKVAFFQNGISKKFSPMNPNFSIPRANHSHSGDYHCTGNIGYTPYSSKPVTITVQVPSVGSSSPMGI

T3 sequence (P08637 17-208 F176V): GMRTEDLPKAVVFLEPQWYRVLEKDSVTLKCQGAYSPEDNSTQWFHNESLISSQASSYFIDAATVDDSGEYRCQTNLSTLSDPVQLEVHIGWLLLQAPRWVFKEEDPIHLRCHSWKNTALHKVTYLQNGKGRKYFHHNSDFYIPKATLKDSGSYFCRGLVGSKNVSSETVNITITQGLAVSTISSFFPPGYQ

B1: M103205H795-MY455/M103202L889-SK1 (antibody, human IgG1, kappa)
heavy: QVTLKESGPVLVKPTETLTLTCTVSGIDLSHDDISWVRQAPGKGLEWVGIISYAGSTYYASWAKGRLTISKDTSKNQVVLTMTNMDPVDTATYYCARGVPAYSHGGDLWGQGTLVTVSSASTKGPSVFPLAPSSKSTSGGTAALGCLVKDYFPEPVTVSWNSGALTSGVHTFPAVLQSSGLYSLSSVVTVPSSSLGTQTYICNVNHKPSNTKVDKKVEPKSCDKTHTCPPCPATELLTGPSVFLFPPKPKDTLMISRTPEVTCVVVDVSDEDPEVKFNWYVDGVEVHNAKTKPREEQYNSTYRVVSVLTVLHQDWLNGKEYKCKVSNKALPKPIEKTISKAKGQPREPQVYTLPPSREEMTKNQVSLTCLVKGFYPSDIAVEWESNGQPENNYKTTPPVLDSDGSFFLYSKLTVDKSRWQQGNVFSCSVMHEALHNHYTQKSLSLSP
light: DIVMTQSPATLSLSPGERATLSCTSSQSVYHANWLSWFQQKPGQPPKLLIYWASTLAYGVPSRFSGSGSGTDFTLTISSLQPEDAATYYCAGGYGGGRYAFGQGTKVEIKRTVAAPSVFIFPPSDEQLKSGTASVVCLLNNFYPREAKVQWKVDNALQSGNSQESVTEQDSKDSTYSLSSTLTLSKADYEKHKVYACEVTHQGLSSPVTKSFNRGEC
notes: Substitutions in EU numbering on SG1
**Q.** How did the Kd [1] turn out when B1 was run?
**A.** 2900 nM

B2: M103205H795-MY463/M103202L889-SK1 (antibody)
chain 1: QVTLKESGPVLVKPTETLTLTCTVSGIDLSHDDISWVRQAPGKGLEWVGIISYAGSTYYASWAKGRLTISKDTSKNQVVLTMTNMDPVDTATYYCARGVPAYSHGGDLWGQGTLVTVSSASTKGPSVFPLAPSSKSTSGGTAALGCLVKDYFPEPVTVSWNSGALTSGVHTFPAVLQSSGLYSLSSVVTVPSSSLGTQTYICNVNHKPSNTKVDKKVEPKSCDKTHTCPPCPHPELLTGPSVFLFPPKPKDTLMISRTPEVTCVVVDVSDEDPEVKFNWYVDGVEVHNAKTKPREEQYNSTYRVVSVLTVLHQDWLNGKEYKCKVSNKALPKPIEKTISKAKGQPREPQVYTLPPSREEMTKNQVSLTCLVKGFYPSDIAVEWESNGQPENNYKTTPPVLDSDGSFFLYSKLTVDKSRWQQGNVFSCSVMHEALHNHYTQKSLSLSP
chain 2: DIVMTQSPATLSLSPGERATLSCTSSQSVYHANWLSWFQQKPGQPPKLLIYWASTLAYGVPSRFSGSGSGTDFTLTISSLQPEDAATYYCAGGYGGGRYAFGQGTKVEIKRTVAAPSVFIFPPSDEQLKSGTASVVCLLNNFYPREAKVQWKVDNALQSGNSQESVTEQDSKDSTYSLSSTLTLSKADYEKHKVYACEVTHQGLSSPVTKSFNRGEC
**Q.** Which results are given for B2?
**A.** KD fold (SG1 = 1) [2]: 2.8 fold; Kd [3]: 2300 nM; Kd [4]: 4800 nM

B3: M103205H795-MY470/M103202L889-SK1 (antibody)
chain 1: QVTLKESGPVLVKPTETLTLTCTVSGIDLSHDDISWVRQAPGKGLEWVGIISYAGSTYYASWAKGRLTISKDTSKNQVVLTMTNMDPVDTATYYCARGVPAYSHGGDLWGQGTLVTVSSASTKGPSVFPLAPSSKSTSGGTAALGCLVKDYFPEPVTVSWNSGALTSGVHTFPAVLQSSGLYSLSSVVTVPSSSLGTQTYICNVNHKPSNTKVDKKVEPKSCDKTHTCPPCPQPELLTGPSVFLFPPKPKDTLMISRTPEVTCVVVDVSDEDPEVKFNWYVDGVEVHNAKTKPREEQYNSTYRVVSVLTVLHQDWLNGKEYKCKVSNKALPKPIEKTISKAKGQPREPQVYTLPPSREEMTKNQVSLTCLVKGFYPSDIAVEWESNGQPENNYKTTPPVLDSDGSFFLYSKLTVDKSRWQQGNVFSCSVMHEALHNHYTQKSLSLSP
chain 2: DIVMTQSPATLSLSPGERATLSCTSSQSVYHANWLSWFQQKPGQPPKLLIYWASTLAYGVPSRFSGSGSGTDFTLTISSLQPEDAATYYCAGGYGGGRYAFGQGTKVEIKRTVAAPSVFIFPPSDEQLKSGTASVVCLLNNFYPREAKVQWKVDNALQSGNSQESVTEQDSKDSTYSLSSTLTLSKADYEKHKVYACEVTHQGLSSPVTKSFNRGEC
**Q.** Which “KD fold (SG1 = 1)” value [5] does the source give for B3 here?
**A.** 2.3 fold

**Q.** And the Kd [3]?
**A.** 2300 nM

B4: M103205H795-MY461/M103202L889-SK1 (antibody)
heavy: QVTLKESGPVLVKPTETLTLTCTVSGIDLSHDDISWVRQAPGKGLEWVGIISYAGSTYYASWAKGRLTISKDTSKNQVVLTMTNMDPVDTATYYCARGVPAYSHGGDLWGQGTLVTVSSASTKGPSVFPLAPSSKSTSGGTAALGCLVKDYFPEPVTVSWNSGALTSGVHTFPAVLQSSGLYSLSSVVTVPSSSLGTQTYICNVNHKPSNTKVDKKVEPKSCDKTHTCPPCPFPELLTGPSVFLFPPKPKDTLMISRTPEVTCVVVDVSDEDPEVKFNWYVDGVEVHNAKTKPREEQYNSTYRVVSVLTVLHQDWLNGKEYKCKVSNKALPKPIEKTISKAKGQPREPQVYTLPPSREEMTKNQVSLTCLVKGFYPSDIAVEWESNGQPENNYKTTPPVLDSDGSFFLYSKLTVDKSRWQQGNVFSCSVMHEALHNHYTQKSLSLSP
light: DIVMTQSPATLSLSPGERATLSCTSSQSVYHANWLSWFQQKPGQPPKLLIYWASTLAYGVPSRFSGSGSGTDFTLTISSLQPEDAATYYCAGGYGGGRYAFGQGTKVEIKRTVAAPSVFIFPPSDEQLKSGTASVVCLLNNFYPREAKVQWKVDNALQSGNSQESVTEQDSKDSTYSLSSTLTLSKADYEKHKVYACEVTHQGLSSPVTKSFNRGEC
notes: as for B1
**Q.** For B4, which “KD fold (SG1 = 1)” value [2] is on record?
**A.** 2.8 fold

**Q.** What about the “KD fold (SG1 = 1)” value [6] of the same binder?
**A.** 3.6 fold

**Q.** And the “KD fold (SG1 = 1)” value [7]?
**A.** 3.6 fold

**Q.** What about the “KD fold (SG1 = 1)” value [8] of the same binder?
**A.** 0.2 fold

**Q.** What about the Kd [9] of the same binder?
**A.** 1800 nM

**Q.** And the Kd [10]?
**A.** 180 nM

**Q.** And the Kd [11]?
**A.** 3500 nM

B5: M103205H795-MY462/M103202L889-SK1 (antibody)
heavy: QVTLKESGPVLVKPTETLTLTCTVSGIDLSHDDISWVRQAPGKGLEWVGIISYAGSTYYASWAKGRLTISKDTSKNQVVLTMTNMDPVDTATYYCARGVPAYSHGGDLWGQGTLVTVSSASTKGPSVFPLAPSSKSTSGGTAALGCLVKDYFPEPVTVSWNSGALTSGVHTFPAVLQSSGLYSLSSVVTVPSSSLGTQTYICNVNHKPSNTKVDKKVEPKSCDKTHTCPPCPGPELLTGPSVFLFPPKPKDTLMISRTPEVTCVVVDVSDEDPEVKFNWYVDGVEVHNAKTKPREEQYNSTYRVVSVLTVLHQDWLNGKEYKCKVSNKALPKPIEKTISKAKGQPREPQVYTLPPSREEMTKNQVSLTCLVKGFYPSDIAVEWESNGQPENNYKTTPPVLDSDGSFFLYSKLTVDKSRWQQGNVFSCSVMHEALHNHYTQKSLSLSP
light: DIVMTQSPATLSLSPGERATLSCTSSQSVYHANWLSWFQQKPGQPPKLLIYWASTLAYGVPSRFSGSGSGTDFTLTISSLQPEDAATYYCAGGYGGGRYAFGQGTKVEIKRTVAAPSVFIFPPSDEQLKSGTASVVCLLNNFYPREAKVQWKVDNALQSGNSQESVTEQDSKDSTYSLSSTLTLSKADYEKHKVYACEVTHQGLSSPVTKSFNRGEC
notes: as for B1
**Q.** For B5, which “KD fold (SG1 = 1)” value [6] is on record?
**A.** 3.6 fold

**Q.** And the “KD fold (SG1 = 1)” value [8]?
**A.** 0.2 fold

**Q.** What about the Kd [1] of the same binder?
**A.** 1800 nM
